Assay [1] addresses glycosylated prostate specific antigen (human) (UniProt P07288). As to the kind of experiment: BLI; […] (0.4 μg mL^-1) […].
The target of assay [2] is neuraminidase-treated glycosylated human PSA (human) (UniProt P07288). Put plainly: BLI; […] (15 μg mL^-1) […], in buffer.

As for Sambucus nigra lectin (natural protein), in assay [1], the maximum signal to noise (PSA against no PSA) was 12.8 and the signal to noise (PSA against no PSA) turned out to be 1.5. In assay [2], this substance displayed a reduction in signal against fresh glycosylated PSA of 50%.

The values above are taken from article PMC9969229.
